In patent US20260184815A1:
Residue numbers refer to the chain shown, from its start.

B1: X115-A03 (antibody, V domains shown)
VH: EVQLLESGGGLVQPGGSLRLSCAASGFTFSHYIMMWVRQAPGKGLEWVSGIYSSGGITVYADSVKGRFTISRDNSKNTLYLQMNSLRAEDTAVYYCAWRRIGVPRRDSFDMWGQGTMVTVSS
VL: DIQMTQSPSTLSASVGDRVTITCRASQSISSWLAWYQQKPGKAPKLLIYKASTLESGVPSRFSGSGSGTEFTLTISSLQPDDFATYYCQQYNTYWTFGQGTKVEIK
B2: X115-F02 (Fab, V domains shown)
VH: B1 VH with W98Y, S108E, M111I
VL: B1 VL
B3: X115-G04 (antibody, V domains shown)
VH: B1 VH with W98Y, I101T, S108E, M111I
VL: B1 VL
B4: X115-D01 (antibody, V domains shown)
VH: EVQLLESGGGLVQPGGSLRLSCAASGFTFSIYSMHWVRQAPGKGLEWVSSIYPSRGMTWYADSVKGRFTISRDNSKNTLYLQMNSLRAEDTAVYYCAYRRTGIPRRDAFDIWGQGTMVTVSS
VL: B1 VL
B5: M145-D11 (Fab, V domains shown)
VH: EVQLLESGGGLVQPGGSLRLSCAASGFTFSHYRMSWVRQAPGKGLEWVSSIYPSGGRTVYADSVKGRFTISRDNSKNTLYLQMNSLRAEDTAVYYCAKDKFEWRLLFRGIGNDAFDIWGQGTMVTVSS
VL: QSVLTQPPSVSVSPGQTASITCSGDKLGDKYTSWYQQRPGQSPVLVIYQDIKRPSGIPERFSGSNSGNTATLTISGTQAMDEADYYCQAWDSPNARVFGSGTKVTVL
B6: M29-D09 (Fab, V domains shown)
VH: EVQLLESGGGLVQPGGSLRLSCAASGFTFSWYTMVWVRQAPGKGLEWVSYIYPSGGATFYADSVKGRFTISRDNSKNTLYLQMNSLRAEDTAVYYCAMGSYDYIWGFYSDHWGQGTLVTVSS
VL: QSALTQPPTVSVSPGQTARITCSGNKLGDKYVAWYQQKPGQSPMLVIYQDTKRPSRVSERFSGSNSANTATLSISGTQALDEADYYCQAWDSSIVIFGGGTRLTVL
B7: M06-D09 (antibody, V domains shown)
VH: EVQLLESGGGLVQPGGSLRLSCAASGFTFSFYYMVWVRQAPGKGLEWVSVIYPSGGITVYADSVKGRFTISRDNSKNTLYLQMNSLRAEDTAVYYCARDKWAVMPPYYYYAMDVWGQGTTVTVSS
VL: DIQMTQSPSSLSASVGDRVTITCRASQSIRNYLNWYQQKPGKAPNLLIYAASTLQSGVPARFSGSGSGTDFTLTISSLQPEDFATYYCQQLSGYPHTFGQGTKLEIK
B8: DX-2922 (antibody, V domains shown)
VH: EVQLLESGGGLVQPGGSLRLSCAASGFTFSHYLMTWVRQAPGKGLEWVSYISPSGGHTIYADSVKGRFTISRDNSKNTLYLQMNSLRAEDTAVYYCARVARGIAARSRTSYFDYWGQGTLVTVSS
VL: EIVLTQSPGTLSLSPGERATLSCRTSQFVNSNYLAWYQQKPGQAPRLLIYGASSRATGIPDRFSGSGSGTDFTLTISRLEPEDFAVYYCQQSSRTPWTFGQGTKVEIK
B9: X115-B07 (antibody, V domains shown)
VH: B8 VH with R98M, A100G, R101Q, A104R, A105G, D113A, Y114Q
VL: B8 VL
B10: M35-G04 (antibody, V domains shown)
VH: EVQLLESGGGLVQPGGSLRLSCAASGFTFSYYHMSWVRQAPGKGLEWVSVISPSGGSTKYADSVKGRFTISRDNSKNTLYLQMNSLRAEDTAVYYCARGGSSDYAWGSYRRPYYFDYWGQGTLVTVSS
VL: DIQMTQSPATLSLSPGERATLSCRASQSVSSYLAWYQQKPGQAPRLLIYDASNRATGIPARFSGSGSGTDFTLTISSLEPEDFAVYYCQQRSNWPRGFTFGPGTKVDIK
B11: M6-D09 (antibody, V domains shown)
VH: B7 VH
VL: B7 VL

target: pKal catalytic domain Mutant 4 (human) (UniProt P03952); experiment: equilibrium Ki,app, enzyme inhibition with fluorogenic substrate, tight binding fit
Sequence (P03952 391-638, change not shown): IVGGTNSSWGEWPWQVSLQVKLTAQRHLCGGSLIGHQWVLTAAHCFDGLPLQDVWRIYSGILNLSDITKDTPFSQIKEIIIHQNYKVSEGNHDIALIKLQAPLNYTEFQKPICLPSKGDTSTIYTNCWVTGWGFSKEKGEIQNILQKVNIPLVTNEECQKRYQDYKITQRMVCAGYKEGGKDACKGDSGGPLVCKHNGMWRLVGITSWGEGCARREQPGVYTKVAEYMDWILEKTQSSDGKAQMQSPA

Row | Binder | Ki [nM]
1 | B1 | 0.13
2 | B2 | 0.1
3 | B3 | 0.3
4 | B4 | 0.12
5 | B5 | 0.21
6 | B6 | 0.39
7 | B7 | 2.9
8 | B8 | 0.25
9 | B9 | 0.14
10 | B10 | 0.8

target: pKal catalytic domain Mutant 4 (human) (UniProt P03952); experiment: equilibrium Ki,app, fluorogenic substrate, tight binding fit

Row | Binder | Ki [nM]
11 | B1 | 0.13
12 | B2 | 0.1
13 | B3 | 0.3
14 | B4 | 0.12
15 | B5 | 0.21
16 | B6 | 0.39
17 | B11 | 2.9
18 | B8 | 0.25
19 | B9 | 0.14
20 | B10 | 0.8
